Measurements published in the supplement of paper PMC10567573.

B1: KRT18 (parent)
chain: KSQDLAKIMADIRAQYDELARKNR

Variants of: B1
Assay: protein stability index of a GFP-peptide fusion (GPS, HEK-293T) (PSI 1-6); higher = more stable
Details: c terminus: a fixed tail appended
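Also: lentivirally expressed fusions sorted by FACS into six bins by GFP to DsRed ratio, PSI derived from sequencing read proportions per bin multiplied by bin number.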

Variant	protein stability index
YSQDLAKIMADIRAQYDELARKNR	2.2
SSQDLAKIMADIRAQYDELARKNR	2.58
RSQDLAKIMADIRAQYDELARKNR	2.62
TSQDLAKIMADIRAQYDELARKNR	2.58
PSQDLAKIMADIRAQYDELARKNR	3.03
VSQDLAKIMADIRAQYDELARKNR	2.71
HSQDLAKIMADIRAQYDELARKNR	2.58
ISQDLAKIMADIRAQYDELARKNR	2.91
WSQDLAKIMADIRAQYDELARKNR	2.28
NSQDLAKIMADIRAQYDELARKNR	2.6
QSQDLAKIMADIRAQYDELARKNR	2.9
GSQDLAKIMADIRAQYDELARKNR	2.83
MSQDLAKIMADIRAQYDELARKNR	2.81
LSQDLAKIMADIRAQYDELARKNR	2.88
FSQDLAKIMADIRAQYDELARKNR	3.1
KSQDTAKIMADIRAQYDELARKNR	3.51
KSQDPAKIMADIRAQYDELARKNR	3.59
KSQDDAKIMADIRAQYDELARKNR	4.16
KSQDAAKIMADIRAQYDELARKNR	3.72
KSQDQAKIMADIRAQYDELARKNR	4.06
KSQDRAKIMADIRAQYDELARKNR	3.83
KSQDSAKIMADIRAQYDELARKNR	4.1
KSQDHAKIMADIRAQYDELARKNR	3.83
KSQDYAKIMADIRAQYDELARKNR	2.19

Variant	protein stability index
KSQDCAKIMADIRAQYDELARKNR	3.02
KSQDKAKIMADIRAQYDELARKNR	3.75
KSQDIAKIMADIRAQYDELARKNR	2.38
KSQDFAKIMADIRAQYDELARKNR	2.45
KSQDWAKIMADIRAQYDELARKNR	2.62
KSQDNAKIMADIRAQYDELARKNR	4.26
KSQDGAKIMADIRAQYDELARKNR	4.49
KSQDMAKIMADIRAQYDELARKNR	2.99
KSQDVAKIMADIRAQYDELARKNR	3.24
KSQDEAKIMADIRAQYDELARKNR	3.94
KSQFLAKIMADIRAQYDELARKNR	2.25
KSQILAKIMADIRAQYDELARKNR	2.1
KSQWLAKIMADIRAQYDELARKNR	2.04
KSQVLAKIMADIRAQYDELARKNR	1.61
KSQELAKIMADIRAQYDELARKNR	2.5
KSQNLAKIMADIRAQYDELARKNR	2.6
KSQKLAKIMADIRAQYDELARKNR	1.98
KSQSLAKIMADIRAQYDELARKNR	2.38
KSQRLAKIMADIRAQYDELARKNR	2.68
KSQHLAKIMADIRAQYDELARKNR	3.03
KSQMLAKIMADIRAQYDELARKNR	1.99
KSQTLAKIMADIRAQYDELARKNR	1.76
KSQPLAKIMADIRAQYDELARKNR	2.68
KSQQLAKIMADIRAQYDELARKNR	2.42

Variant	protein stability index
KSQYLAKIMADIRAQYDELARKNR	1.88
KSQCLAKIMADIRAQYDELARKNR	1.64
KSQALAKIMADIRAQYDELARKNR	2.13
KSQLLAKIMADIRAQYDELARKNR	1.72
KSQGLAKIMADIRAQYDELARKNR	3.18
KSGDLAKIMADIRAQYDELARKNR	2.72
KSADLAKIMADIRAQYDELARKNR	2.31
KSPDLAKIMADIRAQYDELARKNR	2.75
KSLDLAKIMADIRAQYDELARKNR	2.49
KSCDLAKIMADIRAQYDELARKNR	2.02
KSEDLAKIMADIRAQYDELARKNR	2.89
KSKDLAKIMADIRAQYDELARKNR	2.37
KSFDLAKIMADIRAQYDELARKNR	2.46
KSTDLAKIMADIRAQYDELARKNR	2.76
KSRDLAKIMADIRAQYDELARKNR	2.57
KSSDLAKIMADIRAQYDELARKNR	2.69
KSIDLAKIMADIRAQYDELARKNR	2.35
KSDDLAKIMADIRAQYDELARKNR	3.09
KSMDLAKIMADIRAQYDELARKNR	2.41
KSWDLAKIMADIRAQYDELARKNR	1.71
KSYDLAKIMADIRAQYDELARKNR	1.88
KSHDLAKIMADIRAQYDELARKNR	2.13
KSNDLAKIMADIRAQYDELARKNR	3.25
KSVDLAKIMADIRAQYDELARKNR	2.34

Variant	protein stability index
KHQDLAKIMADIRAQYDELARKNR	2.63
KDQDLAKIMADIRAQYDELARKNR	2.85
KIQDLAKIMADIRAQYDELARKNR	2.11
KQQDLAKIMADIRAQYDELARKNR	2.46
KMQDLAKIMADIRAQYDELARKNR	2.04
KGQDLAKIMADIRAQYDELARKNR	2.59
KCQDLAKIMADIRAQYDELARKNR	2.14
KYQDLAKIMADIRAQYDELARKNR	2.04
KAQDLAKIMADIRAQYDELARKNR	2.2
KVQDLAKIMADIRAQYDELARKNR	1.9
KTQDLAKIMADIRAQYDELARKNR	2.7
KEQDLAKIMADIRAQYDELARKNR	3.02
KRQDLAKIMADIRAQYDELARKNR	2.56
KFQDLAKIMADIRAQYDELARKNR	1.84
KKQDLAKIMADIRAQYDELARKNR	3.06
KLQDLAKIMADIRAQYDELARKNR	1.73
KPQDLAKIMADIRAQYDELARKNR	2.43
KWQDLAKIMADIRAQYDELARKNR	1.86
KNQDLAKIMADIRAQYDELARKNR	2.41
KSQDLDKIMADIRAQYDELARKNR	2.8
KSQDLEKIMADIRAQYDELARKNR	2.78
KSQDLCKIMADIRAQYDELARKNR	2.66
